The target of the test is T1, GST (UniProt P08515 1-218 = GST).
T1 construct: Control protein; also called GST itself
Nature of the test: Far-Western blot with radioactively labeled probe.

T1 sequence (P08515 whole entry): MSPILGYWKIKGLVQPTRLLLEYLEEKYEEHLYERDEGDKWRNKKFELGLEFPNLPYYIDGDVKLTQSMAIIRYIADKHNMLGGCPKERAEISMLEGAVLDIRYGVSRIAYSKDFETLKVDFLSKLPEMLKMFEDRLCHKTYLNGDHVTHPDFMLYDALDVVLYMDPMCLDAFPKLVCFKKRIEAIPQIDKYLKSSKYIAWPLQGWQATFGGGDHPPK
Text: A bacterially expressed GST-GRB2 fusion protein containing a 5 amino acid RRASV heart muscle kinase site was purified and radioactively labeled with [³²P]ATP.

B1: p85 SH3 domain (amino acids 1-81) (other, UniProt P26450 1-81, looked up)
chain: MSAEGYQYRALYDYKKEREEDIDLHLGDILTVNKGSLVALGFSDGQEARPEDIGWLNGYNETTGERGDFPGTYVEYIGRKR
modifications: radioactively labeled
notes: range 1-81
As to B1, the binding result is on record as “no binding”.
